# Target: 109QmHtt (UniProt P42858)
# Experiment: cell-based or functional assay
# 109QmHtt, sequence (P42858 other isoform, or with tags, fused parts or gaps): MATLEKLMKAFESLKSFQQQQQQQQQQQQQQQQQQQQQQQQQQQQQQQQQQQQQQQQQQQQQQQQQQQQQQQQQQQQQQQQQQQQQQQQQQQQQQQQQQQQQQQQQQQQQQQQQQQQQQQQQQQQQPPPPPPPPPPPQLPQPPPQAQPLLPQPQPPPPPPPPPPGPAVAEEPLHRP
row,Binder,"average size of the aggregates (TIRF microscopy, Neuro2a cells)"
1,RRRRRRRRWD (C-terminal amide (CONH2)) [8R],3.3 µm^2
2,RQQRRQQDQRQWQRQRQQR (C-terminal amide (CONH2)) [s8R10Q],1.7 µm^2
3,RRRRRRRRWDQQQQQQQQQQ (C-terminal amide (CONH2)) [8R10Q],0.3 µm^2
4,RRRRRRRRWDQQQQQQQQQQQQQQQ (C-terminal amide (CONH2)) [8R15Q],0.2 µm^2

# Source: US20170226169A1
